Experimental findings from article PMC5517495, “Candidate SNP Markers of Familial and Sporadic Alzheimer's Diseases Are Predicted by a Significant Change in the Affinity of TATA-Binding Protein for Human Gene Promoters” are described below.

In this data set the target is TATA-binding protein (TBP) (human, UniProt P20226 1-339). The experiment in a line: stopped-flow fluorescence (FRET); 0.1 uM ODN, 0.1-1.0 uM TBP; EMSA: 20 mM HEPES-KOH pH 7.6, 5 mM MgCl2, 70 mM KCl, 1 mM EDTA, 100 ug/ml BSA, 0.01% NP-40 (printed 0.0.1%), 5% glycerol, 25 C; stopped-flow buffer not stated. Particulars: protein: recombinant; label: 5' TAMRA and 5' FAM; blunt. On the technique in general: A gel shift assay detects complexes by their altered migration in electrophoresis.
TATA-binding protein (TBP), sequence (P20226 whole entry): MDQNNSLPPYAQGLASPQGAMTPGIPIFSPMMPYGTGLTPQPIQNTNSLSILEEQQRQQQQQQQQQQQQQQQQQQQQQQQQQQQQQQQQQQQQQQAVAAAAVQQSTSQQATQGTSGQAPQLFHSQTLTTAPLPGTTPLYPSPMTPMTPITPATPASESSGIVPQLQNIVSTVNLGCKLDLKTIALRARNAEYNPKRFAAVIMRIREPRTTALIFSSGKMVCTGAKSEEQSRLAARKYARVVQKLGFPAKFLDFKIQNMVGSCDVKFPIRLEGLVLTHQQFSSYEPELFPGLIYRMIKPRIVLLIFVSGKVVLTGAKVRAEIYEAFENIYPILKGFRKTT

B1: TPI1 promoter rs1800202 minor allele (stopped-flow) (dsDNA)
DNA 1: CGCGGCGCTCTATAGAAGTGGGCAGT
DNA 2: ACTGCCCACTTCTATAGAGCGCCGCG
For B1, the Kd (commonly the equilibrium constant for the complex coming apart) worked out at 19 nM.

B2: TPI1 promoter rs1800202 ancestral allele (stopped-flow) (dsDNA)
DNA 1: CGCGGCGCTCTATATAAGTGGGCAGT
DNA 2: ACTGCCCACTTATATAGAGCGCCGCG
With B2, the Kd came to 1 nM.
